Experiment [1] addresses T1, HHV-6B glycoprotein Q1 (gQ1), full length, wild type (human herpesvirus 6B (HHV-6B), UniProt Q9QJ11 25-488).
T1 construct: Viral envelope glycoprotein; Tested in lysates of HHV-6B (HST strain)-infected cells (immunoprecipitation) and expressed from plasmid in 293T cells (IFA), alone or with gQ2; also called HHV-6B gQ1; BgQ1
Description: co-expression in cells.

In experiment [2] the target is T2, HHV-6B gQ1 point mutant C487W E488Q (human herpesvirus 6B (HHV-6B), UniProt Q9QJ11 25-486).
T2 construct: Expressed in 293T cells; W is used here
Description: IFA with KH-1 on 293T cells expressing the point mutant.

Experiment [3] addresses T3, HHV-6B gQ1 point mutant E488Q G489V (human herpesvirus 6B (HHV-6B), UniProt Q9QJ11 25-487).
T3 construct: Expressed in 293T cells
The description is as above.

Experiment [4] concerns the target T4, HHV-6B gQ1 carboxy-terminal deletion mutant, position 1 to position 451 (human herpesvirus 6B (HHV-6B), UniProt Q9QJ11 25-451).
T4 construct: Expressed in 293T cells together with gQ2; also called gQ1 1-451
T4 chain: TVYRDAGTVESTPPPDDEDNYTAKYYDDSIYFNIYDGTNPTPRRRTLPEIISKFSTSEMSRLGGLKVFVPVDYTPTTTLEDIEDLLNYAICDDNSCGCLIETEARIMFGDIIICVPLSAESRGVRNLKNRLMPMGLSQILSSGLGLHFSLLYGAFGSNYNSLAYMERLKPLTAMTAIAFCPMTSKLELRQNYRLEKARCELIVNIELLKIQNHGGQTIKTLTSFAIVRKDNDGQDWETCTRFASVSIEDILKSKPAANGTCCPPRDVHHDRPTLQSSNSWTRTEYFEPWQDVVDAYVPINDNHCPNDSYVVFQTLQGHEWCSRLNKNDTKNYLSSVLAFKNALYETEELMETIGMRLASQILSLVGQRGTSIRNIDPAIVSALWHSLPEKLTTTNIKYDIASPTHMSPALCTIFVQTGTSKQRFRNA
Description: IFA on 293T cells co-transfected with the gQ1 mutant and gQ2.

In experiment [5] the target is T5, HHV-6B gQ1 carboxy-terminal deletion mutant, position 1 to position 466 (human herpesvirus 6B (HHV-6B), UniProt Q9QJ11 25-466).
T5 construct: Expressed in 293T cells together with gQ2; also called gQ1 1-466
T5 chain: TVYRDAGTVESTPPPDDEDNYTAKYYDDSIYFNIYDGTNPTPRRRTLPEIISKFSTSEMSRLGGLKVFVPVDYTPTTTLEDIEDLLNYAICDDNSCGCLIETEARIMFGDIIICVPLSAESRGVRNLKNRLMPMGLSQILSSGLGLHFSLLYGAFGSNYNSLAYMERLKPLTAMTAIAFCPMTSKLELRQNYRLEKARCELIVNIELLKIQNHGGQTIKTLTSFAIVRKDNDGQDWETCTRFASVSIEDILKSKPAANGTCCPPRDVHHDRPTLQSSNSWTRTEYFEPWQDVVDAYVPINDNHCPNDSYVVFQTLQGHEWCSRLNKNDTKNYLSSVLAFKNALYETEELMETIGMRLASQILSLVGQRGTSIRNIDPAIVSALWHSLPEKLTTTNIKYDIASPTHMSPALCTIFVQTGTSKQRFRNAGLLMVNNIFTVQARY
The experiment is described as above.

Experiment [6] has as its target T6, HHV-6B gQ1 carboxy-terminal deletion mutant, position 1 to position 483 (human herpesvirus 6B (HHV-6B), UniProt Q9QJ11 25-483).
T6 construct: Expressed in 293T cells together with gQ2; also called gQ1 1-483
T6 chain: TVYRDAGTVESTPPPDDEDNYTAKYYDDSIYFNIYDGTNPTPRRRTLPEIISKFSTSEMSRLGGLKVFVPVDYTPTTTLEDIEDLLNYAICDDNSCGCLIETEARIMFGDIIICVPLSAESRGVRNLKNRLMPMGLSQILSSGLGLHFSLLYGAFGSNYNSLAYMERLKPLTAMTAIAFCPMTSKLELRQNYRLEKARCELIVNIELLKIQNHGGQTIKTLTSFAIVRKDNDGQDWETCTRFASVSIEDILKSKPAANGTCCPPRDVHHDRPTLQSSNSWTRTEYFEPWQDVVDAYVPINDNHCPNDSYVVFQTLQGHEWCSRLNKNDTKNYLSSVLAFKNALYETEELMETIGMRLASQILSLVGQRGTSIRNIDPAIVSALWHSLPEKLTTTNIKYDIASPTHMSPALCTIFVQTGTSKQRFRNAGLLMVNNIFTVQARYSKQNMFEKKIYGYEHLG
Described as above.

B1: HHV-6B glycoprotein Q2 (gQ2) (other)
chain: LPFFSTLPKITSCCDHYVVLNSLSSVSSSTPTCLDGEILFQNAGQKFCRPFTDNRTIVYTMQDQVQRPWSVTWMDFNLVISDYGRAVIENLTESAMSAHKNGPRYLQMETFISDLFRYECHRDNRYVLEKKLQMFYPTTHMNELLFYPSDPTLPSPYGNGHY
notes: Co-expressed with gQ1 from plasmid in cells (293T); also called HHV-6B gQ2; BgQ2
With B1, in experiment [1], the binding result is reported as “binds”.

B2: monoclonal antibody KH-1 (anti-HHV-6B gQ1 neutralizing antibody) (antibody, V domains shown)
VH: EVQLQQSGPELEKPGASVKISCKASGYSFTGYNMNWVKQSNGKRLEWIGNIDPYYGGASYNQKFKGKATLTVDKSSTTAYMQLQSLTSEDSAVYYCARGGYGRYFDVWGAGTAVTVSS
VL: QIVLTQSPAIMSASPGEKVTMTCSASSSISYMHWYQQKPGTSPKRWIYDTSKLASGVPARFSGSGSGTSYSLTISNMESEDAATYYCHQRSRYHTFGGGTRLEIKR
notes: Mouse (BALB/c) hybridoma antibody; also called MAb KH-1; anti-gQ1 monoclonal antibody KH-1
On to B2, for which the binding result in experiment [2], in experiment [3], in experiment [4], in experiment [5] and in experiment [6] was “no binding” throughout.

Values taken from patent US20140093526A1 (RESEARCH FOUNDATION FOR MICROBIAL DISEASES OF OSAKA …, published 2014).
